Measurements: patent publication US20140303084
Substitutions are numbered along the chain they refer to.

How the values were obtained:
[1] = test system: T1, PRIRTVGPGSRSASGKLTCLASYCWLFWTFIA
T1 sequence: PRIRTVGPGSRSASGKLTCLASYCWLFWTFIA

[2] = test system: T2, LYPRLYTPGS RRAYG KLTCLASYCWLFWTGIA
T2 sequence: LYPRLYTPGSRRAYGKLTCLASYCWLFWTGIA

[3] = test system: T3, RRAPGKLTCLASYCWLF WAVIA PPKVKGTRQS
T3 sequence: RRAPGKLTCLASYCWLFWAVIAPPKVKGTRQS

[4] = test system: T4, Lys(palmitoyl)-PEG16-Lys(PEG2-Biotin)-PEG16-rRAPGKLTCLASYCWLFWTGIA
T4 sequence: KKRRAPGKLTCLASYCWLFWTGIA

[5] = test system: T5, RRAPGKLTCLASYCK(PEG2-Biotin)LFWTGIA
T5 sequence: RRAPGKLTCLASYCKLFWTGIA

[6] = test system: T6, PRIRTVGPGSRSASGKLTCLASACWLFWTGIA
T6 sequence: T1 sequence with Y23A, F30G

[7] = test system: T7, RRAPGKLT-Lys-LASY-Glu-WLFWTGIA-COOH
T7 sequence: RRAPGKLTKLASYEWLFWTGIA

KLTCAASYCWLF = test system: T8, KLTCAASYCWLF
T8 sequence: KLTCAASYCWLF

rRAPGKLTCLASYCWLSWTGIA = test system: T9, rRAPGKLTCLASYCWLSWTGIA
T9 sequence: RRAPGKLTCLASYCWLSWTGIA

RRAAGKLQCLASYCWLFWTGIA = test system: T10, RRAAGKLQCLASYCWLFWTGIA
T10 sequence: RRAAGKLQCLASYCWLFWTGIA

[8] = test system: T11, RRAPGKLT-Asp-LASY-Dap-WLFWTGIA-CONH2
T11 sequence: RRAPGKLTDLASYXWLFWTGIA

ERYRLDMTCMASQCWQFPPAAG = test system: T12, ERYRLDMTCMASQCWQFPPAAG
T12 sequence: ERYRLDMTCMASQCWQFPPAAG

[9] = test system: T13, TGLLQGRRDE RARPP KLTCLASYCWLFWTGIA
T13 sequence: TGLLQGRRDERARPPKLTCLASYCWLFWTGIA

RRAPGKLTCLASYCwLFWTGIA [10] = test system: T14, RRAPGKLTCLASYCwLFWTGIA
T14 sequence: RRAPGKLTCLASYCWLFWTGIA

KLTCLATYCWLF = test system: T15, KLTCLATYCWLF
T15 sequence: KLTCLATYCWLF

[11] = test system: T16, GYRVPVGGLV RRAHG KLTCLASYCWLFWTGIA
T16 sequence: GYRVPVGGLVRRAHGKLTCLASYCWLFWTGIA

[12] = test system: T17, RRAPGKLT-Asp-LASY-Dab-WLFWTGIA-CONH2
T17 sequence: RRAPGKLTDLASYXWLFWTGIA

[13] = test system: T18, PSGWAGWAPG RREPG KLTCLASYCWLFWTGIA
T18 sequence: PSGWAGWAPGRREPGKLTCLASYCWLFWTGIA

[14] = test system: T19, PRTTANRRSS RRAPA KLTCLASYCWLFWTGIA
T19 sequence: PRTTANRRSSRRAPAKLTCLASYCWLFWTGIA

[15] = test system: T20, RRAPGKLTCK(PEG2-Biotin)ASYCWLFWTGIA
T20 sequence: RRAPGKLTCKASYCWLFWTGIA

[16] = test system: T21, SKQGRPISPArRAAGKLTCLASYCWLFWTGIA
T21 sequence: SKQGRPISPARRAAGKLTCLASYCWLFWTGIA

KLT-Glu-LASY-Lys-WLF = test system: T22, KLT-Glu-LASY-Lys-WLF
T22 sequence: KLTELASYKWLF

ARAPGKLQCLASYCWLFWTGIA = test system: T23, ARAPGKLQCLASYCWLFWTGIA
T23 sequence: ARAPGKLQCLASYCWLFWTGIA

[17] = test system: T24, SKQGRPISPDrRAAGKLTCLASYCWLFWTGIA-PEG4-C(N-PEG5k maleimide)
T24 sequence: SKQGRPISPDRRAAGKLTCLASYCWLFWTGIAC

compound 1 = test system: T25, compound 1
T25 sequence: KLTCLASYCWLF

[18] = test system: T26, RRAPGKLTCLASYCWLF STPVA RKSLRRHQPT
T26 sequence: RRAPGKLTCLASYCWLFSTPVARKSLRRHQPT

[19] = test system: T27, RRAPGKLTCLASK(PEG2-Biotin)CWLFWTGIA
T27 sequence: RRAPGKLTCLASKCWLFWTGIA

[20] = test system: T28, RRAPGKLTCLASYCWLF WAGYP SLRGSLLVGV
T28 sequence: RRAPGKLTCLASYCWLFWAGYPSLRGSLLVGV

[21] = test system: T29, PRIRTVGPGSRSASGKLTCLASYCWLLWTGIA
T29 sequence: T1 sequence with F27L, F30G

RRAPGKLTCLASYCWlFWTGIA [22] = test system: T30, RRAPGKLTCLASYCWlFWTGIA
T30 sequence: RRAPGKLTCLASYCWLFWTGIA

[23] = test system: T31, RRAPGKLTCLASYCWLF WTAVG GQPYMLLAWR
T31 sequence: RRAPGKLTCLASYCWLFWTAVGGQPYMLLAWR

KLTCLVSYCWLF = test system: T32, KLTCLVSYCWLF
T32 sequence: KLTCLVSYCWLF

rRAAGKLTCLASACWLFATGIA = test system: T33, rRAAGKLTCLASACWLFATGIA
T33 sequence: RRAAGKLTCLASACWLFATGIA

[24] = test system: T34, PRIRTVGPGSRSASGKLTCLASYCWLFWTLIA
T34 sequence: T1 sequence with F30L

[25] = test system: T35, RRAPGKLCALASYACLFWTGIA-COOH
T35 sequence: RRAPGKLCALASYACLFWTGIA

KLTCLASYCWLF-COOH = test system: T36, KLTCLASYCWLF-COOH
T36 sequence: KLTCLASYCWLF

[26] = test system: T37, AVVRGQEPTH RRTPG KLTCLASYCWLFWTGIA
T37 sequence: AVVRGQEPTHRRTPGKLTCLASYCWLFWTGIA

RRAPGKLQCLASYCWLFWTGI = test system: T38, RRAPGKLQCLASYCWLFWTGI
T38 sequence: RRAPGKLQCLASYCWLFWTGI

[27] = test system: T39, RRAPGKLTCLASYCWLF WTGLA PGRGQGGVAG
T39 sequence: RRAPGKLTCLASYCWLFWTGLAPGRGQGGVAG

[28] = test system: T40, RRAPGKLTCLA-MeSer-YCWLFWTGIA
T40 sequence: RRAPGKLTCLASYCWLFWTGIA

compound 22 = test system: T41, compound 22
T41 sequence: T21 sequence with A10D

compound 4 = test system: T42, compound 4
T42 sequence: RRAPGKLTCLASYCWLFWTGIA

RRAPGKLTClASYCWLFWTGIA [29] = test system: T43, RRAPGKLTClASYCWLFWTGIA
T43 sequence: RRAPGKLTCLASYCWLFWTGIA

RQLWNKLTCLASYCALIGLSGT = test system: T44, RQLWNKLTCLASYCALIGLSGT
T44 sequence: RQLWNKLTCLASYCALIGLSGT

compound 5 = test system: T45, compound 5
T45 sequence: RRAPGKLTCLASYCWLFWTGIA

human Factor IXa
Vmax, FXa generation assay [1]: > 2
Vmax, FXa generation assay [2]: > 2
Vmax, FXa generation assay [3]: > 2
Vmax, FXa generation assay [4]: > 3
Vmax, FXa generation assay; (++) means 1-2 [5]: (++)
Vmax, FXa generation assay; (++) means 1-2 [6]: (++)
Vmax, FXa generation assay; (++) means 1-2 [7]: (++)
Vmax, FXa generation assay; (++) means 1-2 (KLTCAASYCWLF): (++)
Vmax, FXa generation assay (rRAPGKLTCLASYCWLSWTGIA): > 1.8
Vmax, FXa generation assay (RRAAGKLQCLASYCWLFWTGIA): > 2
Vmax, FXa generation assay [8]: > 2
Vmax, FXa generation assay; (++) means 1-2 (ERYRLDMTCMASQCWQFPPAAG): (++)
Vmax, FXa generation assay [9]: > 3
Vmax, FXa generation assay (RRAPGKLTCLASYCwLFWTGIA [10]): > 2
Vmax, FXa generation assay; (++) means 1-2 (KLTCLATYCWLF): (++)
Vmax, FXa generation assay [11]: > 2
Vmax, FXa generation assay; (++) means 1-2 [12]: (++)
Vmax, FXa generation assay [13]: > 2
Vmax, FXa generation assay [14]: > 3
Vmax, FXa generation assay; (++) means 1-2 [15]: (++)
Vmax, FXa generation assay [16]: > 3
Vmax, FXa generation assay; (++) means 1-2 (KLT-Glu-LASY-Lys-WLF): (++)
Vmax, FXa generation assay (ARAPGKLQCLASYCWLFWTGIA): > 2
Vmax, FXa generation assay [17]: > 0.5
(kcat/KM)app (M^-1s^-1) of FIXa on the chromogenic substrate, compound 1 at 10 µM (compound 1): 1360 M⁻¹ s⁻¹
Vmax (mOD/min min), with phospholipids (compound 1): 3.98 mOD/min min
Vmax (mOD/min min), without phospholipids (compound 1): 2.6 mOD/min min
Vmax, FXa generation assay with hFIXa (compound 1): > 2
kcat (min^-1) of hFIXa for FX, compound at 3 µM (compound 1): 0.0144 min⁻¹
Δ KM (Km compound/Km buffer) (compound 1): 0.31
Vmax, FXa generation assay [18]: > 3
Vmax, FXa generation assay; (++) means 1-2 [19]: (++)
Vmax, FXa generation assay [20]: > 3
Vmax, FXa generation assay [21]: > 3
Vmax, FXa generation assay; (++) means 1-2 (RRAPGKLTCLASYCWlFWTGIA [22]): (++)
Vmax, FXa generation assay; (++) means 1-2 [23]: (++)
Vmax, FXa generation assay (KLTCLVSYCWLF): > 2
Vmax, FXa generation assay; (++) means 1-2 (rRAAGKLTCLASACWLFATGIA): (++)
Vmax, FXa generation assay [24]: > 3
Vmax, FXa generation assay [25]: > 0.3
Vmax, FXa generation assay; (++) means 1-2 (KLTCLASYCWLF-COOH): (++)
Vmax, FXa generation assay [26]: > 3
Vmax, FXa generation assay (RRAPGKLQCLASYCWLFWTGI): > 2
Vmax, FXa generation assay [27]: > 3
Vmax, FXa generation assay; (++) means 1-2 [28]: (++)
Vmax, FXa generation assay with hFIXa (compound 22): > 3
KM (nM) of hFIXa for FX (compound 4): 11 nM
Vmax, FXa generation assay with hFIXa (compound 4): > 2
kcat (min^-1) of hFIXa for FX, compound at 1 µM (compound 4): 0.0171 min⁻¹
Δ KM (Km compound/Km buffer) (compound 4): 0.14
Vmax, FXa generation assay; (++) means 1-2 (RRAPGKLTClASYCWLFWTGIA [29]): (++)
Vmax, FXa generation assay; (++) means 1-2 (RQLWNKLTCLASYCALIGLSGT): (++)
KM (nM) of hFIXa for FX (compound 5): 11 nM
Vmax, FXa generation assay with hFIXa (compound 5): > 2
kcat (min^-1) of hFIXa for FX, compound at 1 µM (compound 5): 0.0179 min⁻¹
Δ KM (Km compound/Km buffer) (compound 5): 0.14
Δ kM of FIXa, FXa generation assay (compound 5): 0.14
Δ kcat of FIXa, FXa generation assay (compound 5): 199 fold
